Measurements as given in patent US12668638B2, “Antibodies that bind EGFR and cMET” (Merus B.V., priority 2017, dated 2026).

Key:
[1] = tested on: HCC827 tumor cells; assay: HCC827 xenograft in NSG-hHGFki mice; assay type: in vivo, mouse
Description: The VH of the cMET variable domain of PB19748 comprises the amino acid sequence of MF8230 (see FIG. 8). […] The VH of the EGFR variable domain of PB19748 comprises the amino acid sequence of MF8233 of FIG. 7. […] In the chosen model, HCC827 tumor cells are engrafted into immunodeficient NOD SCID gamma (NSG) human hepatocyte growth factor knock-in (hHGFki) mice, that express human HGF (ligand for cMET) in place of endogenous mouse HGF. […] They have no T or B cells, lack functional NK cells, and are deficient in cytokine signaling, which allows for better tumor engraftment.
Prior to tumor cell engraftment, the cell cycle of HCC827 cells was boosted by culturing the cells overnight in medium supplemented with 20% fetal bovine serum (FBS) at confluency not exceeding 80%. […] The resulting tumors were measured twice each week using calipers. When the mean tumor volume reached approximately 200 mm^3, the mice were randomized into two groups (4-7 mice per group depending on tumor growth and volume) and drug treatment was started.
Tumor volume was measured twice each week using calipers, and mean tumor volume (and SEM) calculated for each group. When tumor sizes reached 1500 mm^3 mice were euthanized. Treatment was stopped after day 48, and tumor volume in surviving mice was measured up to day 62. […]
As before, tumor volume was monitored and mean tumor volume (and SEM) calculated in each group. All treatments were stopped after day 60, and tumor volume in surviving mice was measured up to day 82.
As before, tumor volume was monitored and mean tumor volume (and SEM) calculated in each group. All treatments were stopped after day 93, and tumor volume in surviving mice was measured up to day […].
In a fourth experiment the effect of a later administration of PB19478 was tested.
On day 51 when the mean tumor volume had clearly passed the 500 mm 3 mark the mice were randomized into two groups. […] As before, tumor volume was monitored and mean tumor volume (and SEM) calculated in each group. All treatments were stopped after day 72.

[2] = tested on: tumor cell line H1975; conditions: H1975 expresses the cMET ligand HGF; cited from earlier work
[3] = tested on: cMET and EGFR; conditions: cited from earlier work

In the case of `C#Cc1cccc(Nc2ncnc3cc(OCCOC)c(OCCOC)cc23)c1` [erlotinib, reference compound], the anti-tumor response ([1]; mouse, in vivo) is reported as “able to induce an anti-tumor response”.

In the case of “JNJ-61186372: bispecific cMETxEGFR antibody produced by controlled Fab-arm exchange (Moores et al 2016)”, the activity in vivo [2] is given as “active in vivo” and the “affinity imbalance, greater affinity for cMET than EGFR” value [3] is given as “approximately 40 ×”.

B1: LY2875358: humanized monoclonal cMET antibody emibetuzumab (antibody, chains of the INN, looked up, V domains shown)
VH: QVQLVQSGAEVKKPGASVKVSCKASGYTFTDYYMHWVRQAPGQGLEWMGRVNPNRRGTTYNQKFEGRVTMTTDTSTSTAYMELRSLRSDDTAVYYCARANWLDYWGQGTTVTVSS
VL: DIQMTQSPSSLSASVGDRVTITCSVSSSVSSIYLHWYQQKPGKAPKLLIYSTSNLASGVPSRFSGSGSGTDFTLTISSLQPEDFATYYCQVYSGYPLTFGGGTKVEIK
With B1 the anti-tumor response ([1]; antibody 25 mg/kg weekly i.p. plus erlotinib 6 mg/kg daily gavage) was “less effective than PB8532”, the anti-tumor response ([1]; antibody 25 mg/kg weekly i.p. plus erlotinib 6 mg/kg daily gavage, listed as LY3875358) was “less effective” and the anti-tumor response ([1]; antibody 25 mg/kg weekly i.p. plus vehicle (without erlotinib)) was “less effective than PB8532”. The anti-tumor response ([1]; antibody 25 mg/kg weekly i.p. plus vehicle (without erlotinib), listed as LY3875358) was “less effective”.
